In the NTF2 design screens of Basanta et al. (2020):

Assay: protease stability score; higher = more stable; yeast display proteolysis, trypsin and chymotrypsin;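 note: log10 excess protease needed over predicted unfolded state with 0 meaning unfolded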

Row | Sequence | protease stability score
1 | DEHLHKAVNQLWHAIKTNDPDKVQELADPNVRIQVGDKEIHGREEFAHQVRRTREQMRVRIDIKQVDVQGNKVDIEYDYEYNVNGQPRSDRVTAVFVLHNGKVQRMHIHISEEQLRQQEK | 0.886
2 | DEHLLKEAEKHLKQIERGNPDEAVKMVDPNAKFHIGDKTIHGREHWREWVERQVKDQRFKIRLDDMEDHNGKLVLEVTATYDINGKPVTLTVRWEFDIHNGRAQSVRVQVDPKQQEDLKR | 0.535
3 | DEHLNRHLSTVLNILQEGDPKKLLQQFDPNAHFQIGDTHVHGREQMDQQMERERRRARTEVKDYKVDDQGEQLVLHMTFRVDRNGKPKEMQATIKAEVHNGHFKEMKFETDR | -0.089
4 | DEHLQEVWENMLRAQENGDPDSFSRLVDPNVDFVYGDQTVHGREQAMTELKRRTDEIRFEIHHVDVRAQNGHIRVRIDQVKEHNGTPHREKTKNTIVADGDKVKSVEVRSDG | -0.256
5 | DEHLQTLVTDLIRAEQNNDEERLKRLMDPNVRAQYGDQTVSGREEIVQKIIHKNREIHFSQEIKSISAHNGRIHVTVEFTEEHNGEPRRDKMHQTIIAHGDQIKEVRVKSDG | -0.28
6 | DEHLVEKVEEFLQNLQNNNEEEIQKQVDPNAKIDVGDKTVDGREEANKWAEELKDESRFEIKDVKYESHNGRVRANFTAQVDHNGRPETRKYDITFNWHDGVIKHIDNKTTS | 0.403
7 | DEHLVRLADRLLTAVRHGDEDRWVEQFDPNATVKIGDKELHGRSQIKTELERERDTSRVNVQRFSIEDQGDKAVVDVEYVITKNGRPQKDRAKATYNVNNGRFKNASMQKVS | -0.413
8 | DEHNAHVLKQAMEAMATGDEKRFVELVDPNARMKVGDKEIKGREDFQEYLTDLHRHARVEVHHIHVNDNGDRFEIDVTQVIEINGRPDTKRMTLEAVAHNGQVKEINLRVPEEEWRRLER | 0.316
9 | DEHNEAVELMKKLWEAARTGDEEELHKQVDKDVRINVGDKELHGNSQAARKIMERAKRVDHVDVKIQEVTHKGDKIVMRVQFRNTHNGRETDSRYVVWFKNSNGRWVFVKIERG | 1.31
10 | DEHNHKVAEEIFKALTTGDPDKVRENFDKDASLVIGDKTVNGRKQIKEEVQKRKDEMRIDFKNIDIQVSDGKVRVNVRMQVNINGQPVDFTLDAEFDIHNGKAKQVRFEFDEKDKRTLEQ | -0.059
11 | DEHNMKLASRLVRAVQTNDPDQWVRNVDKNVRVQVGDKTVHGREEFHRQMEKKAREMRYEVQMDQVTVHGDKVRIDITERSNVNGRPHHKRAEMIVHVSNGKVQRVEVQDRK | -0.162
12 | DEHNNEMARKVLHAWRKGDENRVKRMLDPNARIVIGDKTIHGMEQMQTWVQELKKEITIDLKSVHVQSQGDKANVEFTHKQKDNGKPDSRKVTVIFVFSNGRIKRIQVDDDG | 0.033
13 | DEHNSRQAKEWVKALNHNDTSRLMELVDPNATITVGDKSLTGREQMSEDVDRKREEINVFVNRVEVNSHGDRAKVRIDYQQHENGRPQRNVIVAILQFHNGKIQRVENEHDQ | -0.052
14 | DEHNVELARKLRSAVEKNSEKEAKNNIDKDVRAQYGDQEINGREHFAEWVQRLTHHIQWEIKSVTVRVTNGRVDVKMHVREEQNGKPREMDVKMTVVFDNGRIENVQVKKHG | 0.448
15 | DEHNVHKVKSMIRAMKTGDEETAQRLADPNVHVKIGDHTLQGRSQLKEYVKKLKTQAKFDFREVDAQDHNGHVKVNVDVVARINGKPVRYEVIIHVTFHNGKIKSAEYQVPQDYLDTLES | 0.522
16 | DEHNVRLAERLLHAIDTNDPKRVKEQVDKDVEYEVGDKRVHGRDDYIKQVETEIRQMSIHIQSMDIHSNGDKVNVRVTYTFTVDGRPQEDTVDYEVQFDNGKVRTVRNRFSEEQEERQKK | -0.245
17 | DEHNYTILQEIWEALKTNNKERFDELADPNARFQVGDKEFHGMETAARHLIRRHTEMRLDMKVDDYRLNGDHLSVDAKVRFRVNGQPNHYQMTLHAQIQGDKLKRMVWRIPESVLERIKS | 0.66
18 | DEHQRRKAKEFLDALRDGNPDDVKKYVDPNARRTVGDKSIHGRDQISHHVEKLKKKMRIEFRIQTITVHGNHIDIKAKMEFEINGKPNTHTFSQSMHAHNGKIKDIHVRIPEEVLRKSKR | -0.06
19 | DEHRLATEAIDQFERALQSGNPDEITKMADPDARVHVGDTQLRGREELQRYMHEVRQRHDQVEVHVHRISIDGNKINIHFVLNLNHNGQTDSQSYEMTARVQNGSAVVKEIIQQ | -0.296
20 | DEHRQLEEVLSQIQDALRTNNPDDWADQADENAEFNIGDKSFSGREKVREYAETHMKDADHVSMDVRRVDVRNGRARVSARITAKVNGETKDVTYDMVFKFHNGQAKLVQMNES | 0.996
21 | DEHRRAEEAAKRAMEIWKTGNERDAEDLADKNVSIDYGDKKYHGRHQIIKFFQELREDVDHVDLKVNDMDVKPGRAVANLRYVLNNDGRNRHDQHRMTLKLEGDKVYLKKIQQG | -0.108
22 | DEHRVQTHAEEFMKLLQRGDEKSLADLMDPNASVKIGDKVYHGREQIRHAMRELRERVDHIHVKDIQAQGNHINVDFVLNVNGKHQKYELHVDFSNGRVKSLSMQTS | 1.69
23 | DEHSDAKRVLEELSKAMENGDEQRVEDQLDENVRINVGENHYHGREHARLWFKQIVDHVDHVRDSMEDYRNQGENFVYVMSVVYQSNGQEKSIRIVYVMKNHNGTVRMVNVHEG | 1.02
24 | DEHSDERRLQTAMHALEQNDPDEIKRQMDKDASARYGEKDVTGRDNAKKAASDFKKKVDHVEIKHYDIQGDKLHAKAKVNINGQHIEIIMVLVAHNGHVQRLQVDHG | 0.227
25 | DEHSIAEQLAHQFIRAQESGDPDQVDRLADENVRVQIGDKQVKGRDVVRRTMQTWRDRSDHITARLRDVSVRNGQINLLIELDYRQNGQTQHHTLVIVAEVHNGQVRMVQIEIR | -0.221
